Assay [1] concerns the target Cynomolgus monkey TSLP (expressed in HEK293 cells) (cynomolgus monkey). Briefly: cell-based or functional assay.
For assay [2], the target named is Human TSLP purchased from R&D and expressed in E. coli (human) (UniProt Q969D9). Briefly: cell-based or functional assay.
Assay [3] addresses Recombinant human TSLP (expressed in HEK293 cells) (human) (UniProt Q969D9). Briefly: cell-based or functional assay.
For assay [4] the target is unchanged. Description: KinExA 3000, solution equilibrium, 25 °C, particles coated with biotinylated human TSLP. Background: A kinetic exclusion assay measures how much of one partner remains free in solution.
Assay [5] deals with Cynomolgus monkey TSLP (expressed in HEK293 cells) (cynomolgus monkey). Briefly: SPR, BIAcore T100, TSLP immobilised on CM5, antibody injected, bivalent analyte model, room temperature.
Assay [6] addresses Recombinant human TSLP (expressed in HEK293 cells) (human) (UniProt Q969D9). Described as above.
Assay [7] has as its target T1, Recombinant human TSLP (expressed in HEK293 cells) (human, UniProt Q969D9 29-159). Briefly: cell-based or functional assay.
In assay [8] the target is T2, Human TSLP purchased from R&D and expressed in E. coli (human, UniProt Q969D9 29-159). Description: cell-based or functional assay.
In assay [9] the target is T3, Cynomolgus monkey TSLP (expressed in HEK293 cells) (cynomolgus monkey, UniProt A0A7N9CAT7 29-159). Description: cell-based or functional assay.
The target of assay [10] is T1, Recombinant human TSLP (expressed in …). Briefly: KinExA 3000, solution equilibrium, 25 °C, particles coated with biotinylated human TSLP.
The target of assay [11] is T3, Cynomolgus monkey TSLP (expressed in …). Description: SPR, BIAcore T100, TSLP immobilised on CM5, antibody injected, bivalent analyte model, 37 °C. (In general: Surface plasmon resonance follows binding to a sensor surface in real time, without labels.)
For assay [12] the target is unchanged. Description: SPR, BIAcore T100, TSLP immobilised on CM5, antibody injected, bivalent analyte model, room temperature.
The target of assay [13] is T2, Human TSLP purchased from R&D and …. Briefly: SPR, BIAcore T100, R&D E. coli TSLP immobilised on CM5, antibody injected, bivalent analyte model, 37 °C.
Assay [14] has the same target. Briefly: SPR, BIAcore T100, R&D E. coli TSLP immobilised on CM5, antibody injected, bivalent analyte model, room temperature.

Several values for one entry are separate records, joined by “and”; a condition that tells them apart may be missing. Equal entries are not always repeated.

B1: Parental rat antibody 23B12 (antibody, from a related filing, V domains shown)
VH: EEKLQQSGDDLVRPGAAVKMSCKASGYIFTDYAMHWVKQRPGQGLEWIGTFIPLLDTSDYNQNFKGRATLTADKSSNTAYMELSRLTSEDSAVYYCARMGVTHSYVMDAWGQGASVTVSS
VL: DIVLTQSPATLSVTPGESVSLSCRASQPISISVHWFQQKSNESPRLLIKFASQSISGIPSRFSGSGSGTDFTLNINRVESEDFSVYYCQQTFSLPYTFGTGTKLELKR
In the case of B1, the EC 50, inhibition of TSLP-induced proliferation of Ba/F3-TSLPR-IL7Ra cells in [1] was 0.064 µg/mL and 0.122 µg/mL and 0.054 µg/mL; in [2], 0.083 µg/mL; in [3], 0.022 µg/mL and 0.025 µg/mL and 0.014 µg/mL. Moreover, the Kd in [4] was 0.0011 nM; in assay [5], 0.159 nM; in assay [6], 0.141 nM and 0.13 nM.

B2: Humanized anti hu TSLP mAb 23B12 (comprising the heavy chain of SEQ ID NO:11 and the light chain of SEQ ID NO:12 of the instant application) (antibody, human IgG1, kappa, V domains shown)
VH: QVQLVQSGAEVKKPGASVKVSCKASGYIFTDYAMHWVRQAPGQGLEWMGTFIPLLDTSDYAQKFQGRVTMTADTSTSTAYMELRSLRSDDTAVYYCARMGVTHSYVMDAWGQGTLVTVSS
VL: EIVLTQSPGTLSLSPGERATLSCRASQPISISVHWYQQKPGQAPRLLIYFASQSISGIPDRFSGSGSGTDFTLTISRLEPEDFAVYYCQQTFSLPYTFGQGTKVEIKR
notes: Vector deposited as ATCC PTA-10482; also called Antibody 4
Take B2: the “EC 50, inhibition of TSLP-induced proliferation of Ba/F3-TSLPR-IL7Ra cells” value is 0.041 µg/mL and 0.024 µg/mL in assay [7]; 0.137 µg/mL and 0.215 µg/mL in [8]; 0.117 µg/mL and 0.077 µg/mL and 0.158 µg/mL and 0.067 µg/mL in [9]. Besides, the Kd in [10] is 0.0032 nM; in assay [11], 0.381 nM; in assay [12] it was 0.138 nM and 0.08 nM and 0.115 nM and 0.127 nM; in assay [13] it was 0.299 nM; in [14], 0.339 nM.

The values are drawn from patent publication US20120219565A1 (Merck Sharp & Dohme, published 2012).
